{"source": "paper PMC12669751", "about": "“Immunodominant antibodies against hemagglutinin in ferrets following infection with 2018 to 2019 influenza vaccine strains” (NPJ Vaccines, 2025)", "biological_target": "TX/50 egg-version rHA1 (Influenza A virus A/Texas/50/2012 …, UniProt R4L1D1, strain)", "experiment": "BLI", "details": "one partner purified"}
{"binder": "monoclonal antibody FluA-20 (antibody, V domains shown, also called FluA-20 mAb; pan-H3 anti-HA1 mAb; copies: 2 + 2) VH: QVQLEESGPGLVKPSETLSLTCSVSGVSVTSDIYYWTWIRQPPGKGLEWIGYIFYNGDTNYNPSLKSRVTMSIDTSKNEFSLRLTSVTAADTAVYFCARGTEDLGYCSSGSCPNHWGQGTLVTVSS VL: DIVMTQSPSSLSASIGDRVTITCRPSQNIRSFLNWFQHKPGKAPKLLIYAASNLQSGVPSRFSGSGSGTEFTLTIRSLQPEDFATYYCQQSYNTPPTFGQGTKVEIK", "values": [{"measurement": "binding result", "result": "binds"}]}
